Article PMC7755894

Biological target: recombinant hCD25 (human IL-2Rα) (human) (UniProt P01589)
Chain of UniProt P01589 (P01589 22-240): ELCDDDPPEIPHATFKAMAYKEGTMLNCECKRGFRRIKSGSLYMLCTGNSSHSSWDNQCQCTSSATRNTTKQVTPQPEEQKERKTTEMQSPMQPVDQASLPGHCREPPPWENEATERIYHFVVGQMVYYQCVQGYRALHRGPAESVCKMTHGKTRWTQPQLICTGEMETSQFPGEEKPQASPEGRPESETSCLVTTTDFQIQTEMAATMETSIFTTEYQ

Chain of NARA1leukin (P60568 whole entry, looked up): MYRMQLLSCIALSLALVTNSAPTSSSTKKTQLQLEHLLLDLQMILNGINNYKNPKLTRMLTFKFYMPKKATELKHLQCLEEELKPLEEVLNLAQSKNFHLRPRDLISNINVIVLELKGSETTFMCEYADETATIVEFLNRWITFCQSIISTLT

fold decrease in pSTAT5 in human CD4+ CD25+ Treg cells (PBMCs, 15 min at 37 °C); stimulation by NARA1leukin compared to hIL-2/NARA1 complexes: 30 fold
Substance: NARA1leukin (from UniProt P60568 97-153; P60568 22-96)
